Assay results: the RNAGym collection of RNA variant scans (doi:10.1073/pnas.2313332121)
Fewer inactive variants are shown than the library holds.

B1: TPR 5TU (parent)
chain: GGAUCUUCUCGAUCUAACAAAAAAGACAAAUCUGCCACAAAGCUUGAGAGCAUCUUCGGAUGCAGAGGCGGCAGCCUUCGGUGGCGCGAUAGCGCCAACGUUCUCAACUAUGACACGCAAAACGCGUGCUCCGUUGAAUGGAGUUUAUCAUG

Variants of: B1
Assay: polymerase ribozyme fitness, log enrichment relative to wild type (log ratio); higher = more active; in vitro selection for triplet polymerase activity
Method in brief: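 After PCR construction and transcription, each subunit's mutant library from a heterodimeric triplet polymerase ribozyme was annealed with a biotinylated primer, the partner subunit and triplets. Incubation was frozen, at −7 °C, and extended constructs were gel-excised, bound to streptavidin beads and amplified by RT-PCR, in one selection round done in triplicate. Fitness is the logarithm of a genotype's enrichment divided by that of the wild type, from inverse-variance-weighted replicate averages of Illumina-sequenced inputs and outputs. The base of the logarithm is 2, and genotypes needed ≥10 input reads and ≥1 read per output.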

Q: Which “polymerase ribozyme fitness (log ratio)” value does the source give for A29U G59C G62U C95U C116A here?
A: ≤ -4.2

Q: For A29U G59C U82A C93U, which “polymerase ribozyme fitness (log ratio)” value is on record?
A: ≤ -4.2

Q: With A29U A30U A37U A47G G50C A97U G100U A106C as the variant, how does the “polymerase ribozyme fitness (log ratio)” value read?
A: ≤ -4.2

Q: For A29U G50A G58C A60C G88A C116G U139A G141C G143C, which “polymerase ribozyme fitness (log ratio)” value is on record?
A: -3.79

Q: With A29G C87A A110C G141U as the variant, how does the “polymerase ribozyme fitness (log ratio)” value read?
A: ≤ -4.2

Q: Which “polymerase ribozyme fitness (log ratio)” value does the source give for A29C C57A G68A G88C C114U G117C A122G here?
A: ≤ -4.2

Q: For A29U G59A G83C C125U, which “polymerase ribozyme fitness (log ratio)” value is on record?
A: ≤ -4.2

Q: Which “polymerase ribozyme fitness (log ratio)” value does the source give for A29C U33C U44A G80U C85U C93U G136U here?
A: ≤ -4.2

Q: With A29U A41U C75U C123U G143U U145G as the variant, how does the “polymerase ribozyme fitness (log ratio)” value read?
A: ≤ -4.2

Q: For A29C A52C U53A C54U C75G C129A, which “polymerase ribozyme fitness (log ratio)” value is on record?
A: ≤ -4.2

Q: For A29C C54U C85U, which “polymerase ribozyme fitness (log ratio)” value is on record?
A: ≤ -4.2

Q: With A29G C76U G92A C123G G143U as the variant, how does the “polymerase ribozyme fitness (log ratio)” value read?
A: ≤ -4.2

Q: With A29U G34C G48C G80A U82A C105A A115G U151A as the variant, how does the “polymerase ribozyme fitness (log ratio)” value read?
A: ≤ -4.2

Q: For A29U A60G C76A, which “polymerase ribozyme fitness (log ratio)” value is on record?
A: ≤ -4.2

Q: Which “polymerase ribozyme fitness (log ratio)” value does the source give for A29U G68A G83A C103G here?
A: ≤ -4.2

Q: Which “polymerase ribozyme fitness (log ratio)” value does the source give for A29G G58C A60C G71A C129G here?
A: ≤ -4.2

Q: Which “polymerase ribozyme fitness (log ratio)” value does the source give for A29U C87U A122U U145C here?
A: -3.85

Q: For A29C C36A U55A U61G C87A, which “polymerase ribozyme fitness (log ratio)” value is on record?
A: ≤ -4.2

Q: Which “polymerase ribozyme fitness (log ratio)” value does the source give for A29G G48A C75U here?
A: ≤ -4.2

Q: With A29C U31G C87A U139G as the variant, how does the “polymerase ribozyme fitness (log ratio)” value read?
A: ≤ -4.2

Q: With A29U A97U A115U G124C U134C U148A as the variant, how does the “polymerase ribozyme fitness (log ratio)” value read?
A: ≤ -4.2

Q: Which “polymerase ribozyme fitness (log ratio)” value does the source give for A29G C93G A115U C116G C149G here?
A: ≤ -4.2

Q: For A29U A107C, which “polymerase ribozyme fitness (log ratio)” value is on record?
A: ≤ -4.2

Q: Which “polymerase ribozyme fitness (log ratio)” value does the source give for A29U G58C G84A C105U A113C here?
A: ≤ -4.2

Q: Which “polymerase ribozyme fitness (log ratio)” value does the source give for A29G C43U U45A A52C C75G A91U A115G U151G here?
A: ≤ -4.2

Q: For A29G G34A A49U G59U C76U C108A A119G, which “polymerase ribozyme fitness (log ratio)” value is on record?
A: ≤ -4.2

Q: With A29G G59U A60U C114U as the variant, how does the “polymerase ribozyme fitness (log ratio)” value read?
A: ≤ -4.2

Q: Which “polymerase ribozyme fitness (log ratio)” value does the source give for A29U U31G A47C U61A G81A C95U G100U here?
A: ≤ -4.2

Q: For A29U G50A C116U C129G, which “polymerase ribozyme fitness (log ratio)” value is on record?
A: ≤ -4.2

Q: With A29U U44A A49C C57U G88U as the variant, how does the “polymerase ribozyme fitness (log ratio)” value read?
A: ≤ -4.2

Q: With A29G G86U G143A as the variant, how does the “polymerase ribozyme fitness (log ratio)” value read?
A: ≤ -4.2

Q: With A29G A52C C85A U90C C95G A97G C118A A138C G143U as the variant, how does the “polymerase ribozyme fitness (log ratio)” value read?
A: ≤ -4.2

Q: With A29G A60C G80A A121U G141U as the variant, how does the “polymerase ribozyme fitness (log ratio)” value read?
A: ≤ -4.2

Q: For A29G A41C, which “polymerase ribozyme fitness (log ratio)” value is on record?
A: -3.63

Q: For A29U A30C A49G C57U C87A G100A G141A, which “polymerase ribozyme fitness (log ratio)” value is on record?
A: ≤ -4.2

Q: With A29C G65A C108U C116G C125A U146G A150G as the variant, how does the “polymerase ribozyme fitness (log ratio)” value read?
A: ≤ -4.2

Q: Which “polymerase ribozyme fitness (log ratio)” value does the source give for A29C C35A here?
A: -3.91

Q: Which “polymerase ribozyme fitness (log ratio)” value does the source give for A29U A66U C96U here?
A: ≤ -4.2

Q: With A29G C76G C93U as the variant, how does the “polymerase ribozyme fitness (log ratio)” value read?
A: ≤ -4.2

Q: With A29U G94U U109A as the variant, how does the “polymerase ribozyme fitness (log ratio)” value read?
A: ≤ -4.2

Q: Which “polymerase ribozyme fitness (log ratio)” value does the source give for A29C A52G G83C A106C here?
A: ≤ -4.2

Q: With A29G C51U C96G as the variant, how does the “polymerase ribozyme fitness (log ratio)” value read?
A: ≤ -4.2

Q: With A29U A49C C63U C116U G133C U139A U146A as the variant, how does the “polymerase ribozyme fitness (log ratio)” value read?
A: ≤ -4.2

Q: For A29U U53A U56A A64U U77C A98G C103G U148C, which “polymerase ribozyme fitness (log ratio)” value is on record?
A: ≤ -4.2

Q: With A29U U33C A52C G86A as the variant, how does the “polymerase ribozyme fitness (log ratio)” value read?
A: ≤ -4.2

Q: With A29U U31G C36U C69G G84A as the variant, how does the “polymerase ribozyme fitness (log ratio)” value read?
A: ≤ -4.2

Q: Which “polymerase ribozyme fitness (log ratio)” value does the source give for A29U A41U C69U C95A C118G C125U U148A here?
A: ≤ -4.2

Q: Which “polymerase ribozyme fitness (log ratio)” value does the source give for A29U U44A G58C U61A G71U U77A U82G G140C here?
A: ≤ -4.2

Q: Which “polymerase ribozyme fitness (log ratio)” value does the source give for A29C G59U G92C C96A A107G C125U U127G here?
A: ≤ -4.2

Q: With A29G U111A as the variant, how does the “polymerase ribozyme fitness (log ratio)” value read?
A: ≤ -4.2

Q: For A29G U55A C95U U101C U109A G133A, which “polymerase ribozyme fitness (log ratio)” value is on record?
A: ≤ -4.2

Q: Which “polymerase ribozyme fitness (log ratio)” value does the source give for A29U G59C G88U C95G here?
A: ≤ -4.2

Q: With A29G A41C A60U C85G G86U C116G G133C A142G A150G as the variant, how does the “polymerase ribozyme fitness (log ratio)” value read?
A: ≤ -4.2

Q: With A29C G58A G83A C118U as the variant, how does the “polymerase ribozyme fitness (log ratio)” value read?
A: ≤ -4.2

Q: For A29C C51G C57G G92C A107C A110C G124A U145A U151G, which “polymerase ribozyme fitness (log ratio)” value is on record?
A: ≤ -4.2

Q: With A29G U33C G141A U145A as the variant, how does the “polymerase ribozyme fitness (log ratio)” value read?
A: ≤ -4.2

Q: Which “polymerase ribozyme fitness (log ratio)” value does the source give for A29C C63U G65U U144G here?
A: ≤ -4.2

Q: Which “polymerase ribozyme fitness (log ratio)” value does the source give for A29U C96U A106C U127G here?
A: ≤ -4.2

Q: With A29C U33G A40U G80U G94U U102C G143A U151A as the variant, how does the “polymerase ribozyme fitness (log ratio)” value read?
A: -3.89

Q: Which “polymerase ribozyme fitness (log ratio)” value does the source give for A29U U45G G86C U148A here?
A: ≤ -4.2

Q: Which “polymerase ribozyme fitness (log ratio)” value does the source give for A29G C36A A47C G50C C76A C85U C118A A121U U135G here?
A: ≤ -4.2

Q: For A29U C51G G58C G71A A91G C95A C103G U151A G152A, which “polymerase ribozyme fitness (log ratio)” value is on record?
A: ≤ -4.2

Q: With A29G C35U U145C as the variant, how does the “polymerase ribozyme fitness (log ratio)” value read?
A: -3.89

Q: Which “polymerase ribozyme fitness (log ratio)” value does the source give for A29U A39G C57G A66C C85G A91U here?
A: ≤ -4.2

Q: For A29U G65A C87A A91C U109G, which “polymerase ribozyme fitness (log ratio)” value is on record?
A: ≤ -4.2

Q: For A29G G50A G80U A91C U134A U146C, which “polymerase ribozyme fitness (log ratio)” value is on record?
A: ≤ -4.2

Q: For A29G G94U A97G C149U, which “polymerase ribozyme fitness (log ratio)” value is on record?
A: ≤ -4.2

Q: Which “polymerase ribozyme fitness (log ratio)” value does the source give for A29U G81U G92C C116G G140A U148C here?
A: ≤ -4.2

Q: Which “polymerase ribozyme fitness (log ratio)” value does the source give for A29U G133C here?
A: ≤ -4.2

Q: Which “polymerase ribozyme fitness (log ratio)” value does the source give for A29C G58A C87G C93G G133A U145C here?
A: ≤ -4.2

Q: For A29C C96G, which “polymerase ribozyme fitness (log ratio)” value is on record?
A: -4.15

Q: Which “polymerase ribozyme fitness (log ratio)” value does the source give for A29U A49G C54G G59U A91U C96A G117U A142U here?
A: ≤ -4.2

Q: With A29U C32U G62A G67U C75G U82G A142U A150G as the variant, how does the “polymerase ribozyme fitness (log ratio)” value read?
A: -3.64

Q: With A29G G58C A73U G92C A98G C125A as the variant, how does the “polymerase ribozyme fitness (log ratio)” value read?
A: ≤ -4.2

Q: Which “polymerase ribozyme fitness (log ratio)” value does the source give for A29C U33G G34U G50C G84C G100C C108A A113U G141U here?
A: ≤ -4.2

Q: With A29U G68A as the variant, how does the “polymerase ribozyme fitness (log ratio)” value read?
A: ≤ -4.2

Q: For A29G A52G, which “polymerase ribozyme fitness (log ratio)” value is on record?
A: -4.08

Q: With A29U G70U as the variant, how does the “polymerase ribozyme fitness (log ratio)” value read?
A: ≤ -4.2

Q: For A29G C51U G62A G84A U139G, which “polymerase ribozyme fitness (log ratio)” value is on record?
A: ≤ -4.2

Q: For A29U C51A G94A, which “polymerase ribozyme fitness (log ratio)” value is on record?
A: ≤ -4.2

Q: For A29U G86A C87U C105A C116A U146A, which “polymerase ribozyme fitness (log ratio)” value is on record?
A: ≤ -4.2

Q: Which “polymerase ribozyme fitness (log ratio)” value does the source give for A29C G74C here?
A: ≤ -4.2

Q: Which “polymerase ribozyme fitness (log ratio)” value does the source give for A29G A47C U55G here?
A: ≤ -4.2

Q: With A29C G59A G94U U102A A106G G141A as the variant, how does the “polymerase ribozyme fitness (log ratio)” value read?
A: ≤ -4.2
